The record followed here is publication PMC10198977, “Computational design of dynamic receptor—peptide signaling complexes applied to chemotaxis” (Nature Communications, 2023).

One assay has as its system Gαi activation. The assay can be described thus: Gαi dissociation BRET of designed receptors with WT CXCL12(1-17) peptide. The following applies: WT CXCL12 peptide. The format is cell-based. The procedure: Lyophilized peptides were stored at −80 °C and resuspended in assay buffer on the day of the experiment.
40,000 HEK 293T cells were transiently transfected with WT or variant HA3-CXCR4, Gαi1−91-Rluc8, Gβ3-WT, and Gγ9-GFP2 in pcDNA3.1(+) at a ratio of 10:1:10:5 respectively. Cells were first seeded in 100 µL DMEM 10% FBS in a poly-lysine coated, white-walled, white-bottom 96-well plate. Directly after cell loading, 50 µL of the mixture containing Lipofectamine 2000 and the DNA was added on top of the cells. The cells were then left to incubate at 37 °C, 5% CO2, and 95% relative humidity for 20 h, after which, 150 µL media was refreshed. Cells were assayed 48 h post-transfection. Cells were washed with 150 µL PBS, then 40 µL BRET buffer (HBSS, 0.2% Glucose) was added to each well. Coelenterazine 400a was first added at a final concentration of 2.5 µM and BRET ratios were measured once using Mithras[2] LB 943 plate reader. After the first measurement, 40 µL of a 3x concentrated agonist solution was added to each well, and BRET ratios were measured for another 30 min using a Mithras[2] LB 943 plate reader. Mock-transfected controls were subtracted from the data. Maximum values averaged from 3 replicates were then plotted against selected concentrations and fitted to a sigmoidal curve using GraphPad Prism v9.
A general note: In BRET a luciferase serves as donor, and the signal depends on an acceptor being close.

Assay [1] relates to CXCR4 variant ligand-binding cavity. The assay is described as follows: Receptor cavity cross-sectional area and structure-function map. The following applies: receptor–peptide pair; Fig. 5c z-axis.
From the text: Calculation of receptor cavity cross-sectional area
To quantify the conformational diversity of the ligand binding site between receptor variants, the ligand-binding pocket of the receptor models (from whose the ligand molecule was removed) was geometrically described using pyKVFinder[75]. Cavities were defined using a 1.2 Å probe over a cubic lattice (0.25 Å vertex). A 4.0 Å probe was used to define the entrance of the cavity.

B1: Cdyn: CXCR4 receptor design maintaining conformational dynamism; 3 mutations (protein, UniProt P61073 1-352, looked up, variant L41A S178A H113N)
C-X-C chemokine receptor type …: MEGISIYTSDNYTEEMGSGDYDSMKEPCFREENANFNKIFAPTIYSIIFLTGIVGNGLVILVMGYQKKLRSMTDKYRLHLSVADLLFVITLPFWAVDAVANWYFGNFLCKAVNVIYTVNLYSSVLILAFISLDRYLAIVHATNSQRPRKLLAEKVVYVGVWIPALLLTIPDFIFANVAEADDRYICDRFYPNDLWVVVFQFQHIMVGLILPGIVILSCYCIIISKLSHSKGHQKRKALKTTVILILAFFACWLPYYIGISIDSFILLEIIKQGCEFENTVHKWISITEALAFFHCCLNPILYAFLGAKFKTSAQHALTSVSRGSSLKILSKGKRGGHSSVSTESESSSFHSS
Turning to B1, the “enhanced potency from WT” value in the assay on Gαi activation (up to) is listed as “up to 11 -fold”. For the same molecule, the “enhanced potency in Gαi-coupling” value with Gαi activation (over WT CXCR4) is on record as ~11 -fold. The “increase in efficacy (Gαi)” value in the assay with Gαi activation (vs WT CXCR4) is listed as 20%. In assay [1], the “Potency (activity shift from WT)” value amounted to 1.794.
